Test results taken from article PMC5324674, “NBP35 interacts with DRE2 in the maturation of cytosolic iron‐sulphur proteins in Arabidopsis thaliana” (The Plant Journal, 2017).

Molecular target: T1, Purified NBP35 (His‐tagged, from E. coli) (Arabidopsis thaliana, UniProt Q8H1Q2 1-350)
T1 construct: The SPR methods say only 'purified NBP35'; also called wild‐type NBP35; source: E. coli, purified (His-Trap HP column, desalted on PD10)
T1 sequence (looked up): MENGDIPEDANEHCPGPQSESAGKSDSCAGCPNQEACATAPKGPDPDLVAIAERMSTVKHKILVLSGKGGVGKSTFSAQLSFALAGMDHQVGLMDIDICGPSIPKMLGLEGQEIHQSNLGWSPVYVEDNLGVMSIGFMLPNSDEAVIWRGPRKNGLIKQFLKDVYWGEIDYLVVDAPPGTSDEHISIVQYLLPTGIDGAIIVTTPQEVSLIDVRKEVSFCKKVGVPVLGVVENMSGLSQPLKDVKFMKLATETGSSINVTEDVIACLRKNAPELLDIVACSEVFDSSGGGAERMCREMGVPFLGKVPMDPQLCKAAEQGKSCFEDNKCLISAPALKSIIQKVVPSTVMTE
Assay: SPR; Biacore T200, Streptavidin chip; Strep-tagged DRE2 captured from E. coli cell extract (about 1700 RU); purified NBP35 0-45 uM injected, multi-cycle; 25°C; 20 mM Tris-HCl pH 8, 0.15 M NaCl, 5% glycerol; equilibrium response, Affinity Fit, 1:1 model
Details: one partner purified

B1: Strep‐tagged DRE2 (natural protein)
chain: not shown
notes: DRE2/CIAPIN1, Arabidopsis thaliana, AT5G18400; printed also as 'DRE2-Strep'; also called DRE2‐Strep; source: E. coli cell extract, captured on a Streptavidin sensor chip
Question: With B1 as the binder, how does the Kd read?
Answer: Its Kd is 3.3 ± 0.9 µM.
